In article PMC3515690 (Nature structural & molecular biology, 2012):

What was measured:
Experiment in all cases: cross-linking
Atg7 D47A N50A K53A = target: T1, Atg7 D47A N50A K53A (S. cerevisiae, UniProt P38862 1-630, D47A | N50A | K53A)
T1 sequence (looked up): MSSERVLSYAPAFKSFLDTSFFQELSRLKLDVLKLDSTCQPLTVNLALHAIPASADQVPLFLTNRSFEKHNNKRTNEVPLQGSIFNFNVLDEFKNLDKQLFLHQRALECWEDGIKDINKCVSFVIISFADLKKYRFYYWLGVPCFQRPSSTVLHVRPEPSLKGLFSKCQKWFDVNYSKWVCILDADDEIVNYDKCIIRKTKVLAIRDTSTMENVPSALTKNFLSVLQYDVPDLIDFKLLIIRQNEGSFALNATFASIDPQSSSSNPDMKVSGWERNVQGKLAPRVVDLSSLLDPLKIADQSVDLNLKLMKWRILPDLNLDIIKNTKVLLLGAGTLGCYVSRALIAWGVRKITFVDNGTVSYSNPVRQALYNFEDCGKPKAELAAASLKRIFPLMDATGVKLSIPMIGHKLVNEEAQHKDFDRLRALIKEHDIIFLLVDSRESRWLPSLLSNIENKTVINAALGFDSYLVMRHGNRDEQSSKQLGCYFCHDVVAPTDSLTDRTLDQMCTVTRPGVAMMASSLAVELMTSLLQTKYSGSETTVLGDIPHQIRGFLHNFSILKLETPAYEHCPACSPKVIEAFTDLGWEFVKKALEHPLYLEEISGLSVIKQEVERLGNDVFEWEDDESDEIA

[1] = target: T2, Atg7 with residues 290–294 deleted (S. cerevisiae, UniProt P38862 1-630, deletion of residues 290–294)
T2 sequence (looked up): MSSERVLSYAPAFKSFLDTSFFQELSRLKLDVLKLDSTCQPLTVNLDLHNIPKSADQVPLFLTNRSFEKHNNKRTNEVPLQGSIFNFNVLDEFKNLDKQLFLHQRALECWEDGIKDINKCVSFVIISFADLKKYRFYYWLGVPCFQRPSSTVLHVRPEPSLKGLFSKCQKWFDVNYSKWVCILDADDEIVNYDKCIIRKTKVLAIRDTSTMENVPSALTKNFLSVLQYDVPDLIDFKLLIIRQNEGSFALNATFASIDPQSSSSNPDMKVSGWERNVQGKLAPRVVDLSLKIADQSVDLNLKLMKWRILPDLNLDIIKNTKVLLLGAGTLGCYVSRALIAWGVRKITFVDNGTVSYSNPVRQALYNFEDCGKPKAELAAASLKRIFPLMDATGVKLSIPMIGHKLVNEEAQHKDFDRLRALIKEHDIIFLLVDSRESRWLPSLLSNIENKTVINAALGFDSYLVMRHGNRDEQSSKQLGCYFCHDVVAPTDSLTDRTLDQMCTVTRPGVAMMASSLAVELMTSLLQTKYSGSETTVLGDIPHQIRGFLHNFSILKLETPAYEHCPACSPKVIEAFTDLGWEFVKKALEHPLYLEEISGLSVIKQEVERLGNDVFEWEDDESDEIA

Atg7 V285D = target: T3, Atg7 V285D (S. cerevisiae, UniProt P38862 1-630, V285D)
T3 sequence (looked up): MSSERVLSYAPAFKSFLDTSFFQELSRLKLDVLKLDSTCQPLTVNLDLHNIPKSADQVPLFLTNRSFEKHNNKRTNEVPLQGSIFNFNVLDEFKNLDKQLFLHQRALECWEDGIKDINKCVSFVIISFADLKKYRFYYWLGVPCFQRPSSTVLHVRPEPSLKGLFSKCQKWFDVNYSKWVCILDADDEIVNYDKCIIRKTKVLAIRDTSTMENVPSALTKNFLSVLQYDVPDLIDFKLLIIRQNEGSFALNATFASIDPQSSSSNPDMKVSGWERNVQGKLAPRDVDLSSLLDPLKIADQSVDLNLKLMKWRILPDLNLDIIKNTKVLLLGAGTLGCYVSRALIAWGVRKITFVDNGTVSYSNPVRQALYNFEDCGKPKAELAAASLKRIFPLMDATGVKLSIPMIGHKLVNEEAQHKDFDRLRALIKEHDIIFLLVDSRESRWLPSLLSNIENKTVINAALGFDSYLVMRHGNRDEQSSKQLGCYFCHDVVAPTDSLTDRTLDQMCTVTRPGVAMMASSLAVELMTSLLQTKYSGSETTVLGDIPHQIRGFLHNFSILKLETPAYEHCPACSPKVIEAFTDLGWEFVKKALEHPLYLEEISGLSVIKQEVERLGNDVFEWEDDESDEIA

Measured: binding result

B1: Atg3(C41A C76A C83A) (enzyme, S. cerevisiae)
chain: MIRSTLSSWREYLTPITHKSTFLTTGQITPEEFVQAGDYLAHMFPTWKWNEESSDISYRDFLPKNKQFLIIRKVPADKRAEQAVEVEGPDVIMKGFAEDGDEDDVLEYIGSETEHVQSTPAGGTKDSSIDDIDELIQDMEIKEEDENDDTEEFNAKGGLAKDMAQERYYDLYIAYSTSYRVPKMYIVGFNSNGSPLSPEQMFEDISADYRTKTATIEKLPFYKNSVLSVSIHPCKHANVMKILLDKVRVVRQRRRKELQEEQELDGVGDWEDLQDDIDDSLRVDQYLIVFLKFITSVTPSIQHDYTMEGW
modifications: Cys234 reacted with bismaleimidoethane (BMOE)
binds: all assays above
